Series [1] concerns HeLa Kyoto. In words: solubility in G1/S (NP-40 vs SDS abundance) (log2 ratio); higher = more soluble. The settings on record: cell cycle stage: G1/S.
The subject of series [2] is HeLa Kyoto. In words: melting temperature (median over replicates), in situ; higher = more thermally stable.
The test system of series [3] is HeLa Kyoto. In words: solubility change mitosis vs G1/S (difference of NP-40 vs SDS log2 ratios) (log2 ratio difference); higher = more soluble in mitosis.
The subject of series [4] is HeLa Kyoto. In words: thermal stability score vs G1/S (z-score of summed log2 fold changes over temperatures); higher = more thermally stable than in G1/S.
[5] abbreviates: cell cycle stage: early G1 (4.5 h after nocodazole release).
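For melting temperature (median over replicates), in situ in this document: HeLa Kyoto cells synchronized by double thymidine or nocodazole block, proteins quantified by TMT10plex mass spectrometry, three independent biological replicates.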
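For solubility change mitosis vs G1/S (difference of NP-40 vs SDS log2 ratios) in this document: synchronized HeLa Kyoto cells (double thymidine block for G1/S, nocodazole release for mitosis), protein amounts in NP-40 versus SDS lysates quantified by mass spectrometry, three biological replicates.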
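For solubility in G1/S (NP-40 vs SDS abundance) in this document: HeLa Kyoto cells arrested at G1/S by double thymidine block, proteins quantified by TMT10plex mass spectrometry in mild NP-40 versus SDS extracts, three biological replicates.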
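For thermal stability score vs G1/S (z-score of summed log2 fold changes over temperatures) in this document: synchronized HeLa Kyoto cells, proteins quantified by TMT10plex mass spectrometry, three biological replicates, mitosis taken 0.5 h after nocodazole release, G1/S directly after double thymidine block.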

For “MHQQKRQPELVEGNLPVFVFPTELIFYADDQSTHKQVLTLYNPYEFALKFKVLCTTPNKYVVVDAAGAVKPQCCVDIVIRHRDVRSCHYGVIDKFRLQVSEQSQRKALGRKEVVATLLPSAKEQQKEEEEKRLKEHLTESLFFEQSFQPENRAVSSGPSLLTVFLGVVCIAALMLPTLGDVESLVPLYLHLSVNQKLVAAYILGLITMAILRT [MOSPD1]”, in the series on HeLa Kyoto [1], the “solubility in G1/S (log2)” value amounted to 0.0717. Also, the melting temperature in the series with HeLa Kyoto [2] (cell cycle stage: G1/S) turned out to be 54.2 °C; in the series with HeLa Kyoto [2] (cell cycle stage: mitosis), 54.9 °C. Further, in the series on HeLa Kyoto [3], the “solubility change mitosis (log2)” value is 0.352. Moreover, the thermal stability score in the series on HeLa Kyoto [4] (setting [5]) is -1.29; in the series on HeLa Kyoto [4] (cell cycle stage: mitosis), -2.15.

On to “MHSEAEESKEVATDVFNSKNLAVQAQKKILGKMVSKSIATTLIDDTSSEVLDELYRVTREYTQNKKEAEKIIKNLIKTVIKLAILYRNNQFNQDELALMEKFKKKVHQLAMTVVSFHQVDYTFDRNVLSRLLNECREMLHQIIQRHLTAKSHGRVNNVFDHFSDCEFLAALYNPFGNFKPHLQKLCDGINKMLDEENI [TNFAIP8]”, for which, in the series with HeLa Kyoto [1], the “solubility in G1/S (log2)” value was found to be 0.339. Also, the figures for the melting temperature in the series with HeLa Kyoto [2] (cell cycle stage: G1/S) and in the series on HeLa Kyoto [2] (cell cycle stage: mitosis) were 51.9 °C and 51.7 °C, respectively. Besides, the “solubility change mitosis (log2)” value with HeLa Kyoto [3] was -0.272. In addition, the thermal stability score was 0.429 with HeLa Kyoto [4] (setting [5]) and -0.108 in the series with HeLa Kyoto [4] (cell cycle stage: mitosis).

In the case of “MHVIKRDGRQERVMFDKITSRIQKLCYGLNMDFVDPAQITMKVIQGLYSGVTTVELDTLAAETAATLTTKHPDYAILAARIAVSNLHKETKKVFSDVMEDLYNYINPHNGKHSPMVAKSTLDIVLANKDRLNSAIIYDRDFSYNYFGFKTLERSYLLKINGKVAERPQHMLMRVSVGIHKEDIDAAIETYNLLSERWFTHASPTLFNAGTNRPQLSSCFLLSMKDDSIEGIYDTLKQCALISKSAGGIGVAVSCIRATGSYIAGTNGNSNGLVPMLRVYNNTARYVDQGGNKRPGAFAIYLEPWHLDIFEFLDLKKNTGKEEQRARDLFFALWIPDLFMKRVETNQDWSLMCPNECPGLDEVWGEEFEKLYASYEKQGRVRKVVKAQQLWYAIIESQTETGTPYMLYKDSCNRKSNQQNLGTIKCSNLCTEIVEYTSKDEVAVCNLASLALNMYVTSEHTYDFKKLAEVTKVVVRNLNKIIDINYYPVPEACLSNKRHRPIGIGVQGLADAFILMRYPFESAEAQLLNKQIFETIYYGALEASCDLAKEQGPYETYEGSPVSKGILQYDMWNVTPTDLWDWKVLKEKIAKYGIRNSLLIAPMPTASTAQILGNNESIEPYTSNIYTRRVLSGEFQIVNPHLLKDLTERGLWHEEMKNQIIACNGSIQSIPEIPDDLKQLYKTVWEISQKTVLKMAAERGAFIDQSQSLNIHIAEPNYGKLTSMHFYGWKQGLKTGMYYLRTRPAANPIQFTLNKEKLKDKEKVSKEEEEKERNTAAMVCSLENRDECLMCGS [RRM1]”, in the series on HeLa Kyoto [1], the “solubility in G1/S (log2)” value is -0.148. Also, the melting temperature in the series with HeLa Kyoto [2] (cell cycle stage: G1/S) is 56.1 °C; with HeLa Kyoto [2] (cell cycle stage: mitosis), 53.8 °C. For the same sequence, the “solubility change mitosis (log2)” value in the series on HeLa Kyoto [3] was -0.154. The thermal stability score with HeLa Kyoto [4] (setting [5]) was -8.92; in the series on HeLa Kyoto [4] (cell cycle stage: mitosis) it was -8.47.

As to “MIALFNKLLDWFKALFWKEEMELTLVGLQYSGKTTFVNVIASGQFNEDMIPTVGFNMRKITKGNVTIKLWDIGGQPRFRSMWERYCRGVSAIVYMVDAADQEKIEASKNELHNLLDKPQLQGIPVLVLGNKRDLPGALDEKELIEKMNLSAIQDREICCYSISCKEKDNIDITLQWLIQHSKSRRS [ARL8A]”, the “solubility in G1/S (log2)” value in the series with HeLa Kyoto [1] was -0.0955. The melting temperature with HeLa Kyoto [2] (cell cycle stage: G1/S) was determined as 54.3 °C; in the series with HeLa Kyoto [2] (cell cycle stage: mitosis) it was 54.4 °C. For the same sequence, the “solubility change mitosis (log2)” value in the series with HeLa Kyoto [3] is -0.116. Further, the results for the thermal stability score in the series with HeLa Kyoto [4] (setting [5]) and with HeLa Kyoto [4] (cell cycle stage: mitosis) were -1.51 and -1.71, respectively.

Take “MICTFLRAVQYTEKLHRSSAKRLLLPYIVLNKACLKTEPSLRCGLQYQKKTLRPRCILGVTQKTIWTQGPSPRKAKEDGSKQVSVHRSQRGGTAVPTSQKVKEAGRDFTYLIVVLFGISITGGLFYTIFKELFSSSSPSKIYGRALEKCRSHPEVIGVFGESVKGYGEVTRRGRRQHVRFTEYVKDGLKHTCVKFYIEGSEPGKQGTVYAQVKENPGSGEYDFRYIFVEIESYPRRTIIIEDNRSQDD [TIMM21]”: in the series with HeLa Kyoto [1], the “solubility in G1/S (log2)” value is -0.209. Further, the melting temperature in the series with HeLa Kyoto [2] (cell cycle stage: G1/S) amounted to 52.1 °C; in the series with HeLa Kyoto [2] (cell cycle stage: mitosis), 51.6 °C. Moreover, the “solubility change mitosis (log2)” value in the series with HeLa Kyoto [3] was found to be 0.0282. Moreover, the figures for the thermal stability score in the series with HeLa Kyoto [4] (setting [5]) and in the series with HeLa Kyoto [4] (cell cycle stage: mitosis) were 0.315 and -0.0739, respectively.

These data come from the supplement of paper PMC5998384.
